According to paper PMC4600597:

Tested on: C[C@H](CCC[C@@H](C)[C@H]1CC[C@H]2[C@@H]3CCC4=CC(=O)CC[C@]4(C)[C@H]3CC[C@]12C)C(=O)SCCNC(=O)CCNC(=O)[C@H](O)C(C)(C)COP(=O)(O)OP(=O)(O)OC[C@H]1O[C@@H](n2cnc3c(N)ncnc32)[C@H](O)[C@@H]1OP(=O)(O)O
Assay: purified protein
Conditions: pH 8.5; 25.0 °C

“MCR (Rv1143) (Mycobacterium tuberculosis H37Rv)” showed a Km of 6.5 ± 1.4 µM.
